For assay [1], the target named is T1, LILRA4 (human, UniProt P59901 24-446).
T1 construct: Bought protein; limits of the extracellular domain are marked by bold type not visible here; whole entry named; also called recombinant human LILRA4
The assay is described as follows: SPR, Biacore 8K, mAb captured on anti-human Fc, analyte injected. As to the method:
(§1) SPR was used to determine the specificity of four humanized anti-ILT4 mAbs for binding to LILRB2 and to determine any cross-reactivity with nine other LILRA and LILRB family members. LILR proteins were purchased from Acro Biosystems or R&D Systems, with sequence provided below. The studies were performed with a Biacore 8K instrument using a CM4 sensor chip with a running buffer of HBS-P+, 100 μg/mL BSA. Anti-human Fc specific capture surfaces were prepared using standard amine coupling chemistry. MAb was captured to flow cell 2 with flow cell 1 serving as the reference flow cell. Each of the nine family members and LILRB2 were injected at 100 nM at 30 μL/min for 90 sec with 240 sec of dissociation. […] All sensorgrams were doubled-referenced during processing of the data.

Assay [2] has as its target T2, LILRA5 (human, UniProt A6NI73 42-268).
T2 construct: Bought protein; limits of the extracellular domain are marked by bold type not visible here; whole entry named; also called recombinant human LILRA5
Described as above. As to the method: as §1

For assay [3], the target named is T3, LILRA3 (human, UniProt Q8N6C8 24-439).
T3 construct: Bought protein; limits of the part used are marked by bold type not visible here; whole entry named; also called recombinant human LILRA3
T3 sequence (Q8N6C8 24-439 A105V limits assumed): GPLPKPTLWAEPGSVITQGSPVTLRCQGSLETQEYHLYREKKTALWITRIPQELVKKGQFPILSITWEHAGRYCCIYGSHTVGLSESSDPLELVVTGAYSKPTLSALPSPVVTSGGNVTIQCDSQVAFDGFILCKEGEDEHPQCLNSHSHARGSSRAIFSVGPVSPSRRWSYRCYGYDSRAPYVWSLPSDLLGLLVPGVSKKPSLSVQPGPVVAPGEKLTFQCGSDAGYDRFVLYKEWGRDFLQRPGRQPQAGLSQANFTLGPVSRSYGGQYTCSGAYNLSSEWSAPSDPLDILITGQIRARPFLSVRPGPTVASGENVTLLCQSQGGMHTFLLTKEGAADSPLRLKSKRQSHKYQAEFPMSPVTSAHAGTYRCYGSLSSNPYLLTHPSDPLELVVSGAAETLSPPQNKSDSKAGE
The assay is described as above. As to the method: as §1

The target in assay [4] is T4, LILRB4 (human, UniProt Q8NHJ6 22-259).
T4 construct: Bought protein; limits of the extracellular domain are marked by bold type not visible here; whole entry named; also called recombinant human LILRB4; ILT3
T4 sequence (Q8NHJ6 other isoform, or with tags, fused parts or gaps): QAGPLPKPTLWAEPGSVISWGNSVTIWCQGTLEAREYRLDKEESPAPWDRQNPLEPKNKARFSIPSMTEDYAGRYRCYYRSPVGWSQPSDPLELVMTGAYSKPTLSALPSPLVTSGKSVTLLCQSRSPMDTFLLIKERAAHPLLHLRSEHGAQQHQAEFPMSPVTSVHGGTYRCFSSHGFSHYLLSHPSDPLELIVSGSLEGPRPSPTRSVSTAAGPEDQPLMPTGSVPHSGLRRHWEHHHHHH
The description is as above. As to the method:
as §1

Assay [5] addresses T5, LILRB3 (human, UniProt O75022 24-443).
T5 construct: Bought protein; limits of the extracellular domain are marked by bold type not visible here; whole entry named; also called recombinant human LILRB3; ILT5
The description is as above. As to the method:
as §1

Assay [6] addresses T6, LILRA1 (human, UniProt O75019 17-461).
T6 construct: Bought protein; limits of the extracellular domain are marked by bold type not visible here; whole entry named; also called recombinant human LILRA1
The description is as above. As to the method: as §1

Assay [7] concerns the target T7, LILRA6 (human, UniProt Q6PI73 24-447).
T7 construct: Bought protein; limits of the extracellular domain are marked by bold type not visible here; whole entry named; also called recombinant human LILRA6
Described as above. As to the method: as §1

For assay [8], the target named is T8, LILRB1 (human, UniProt Q8NHL6 24-461).
T8 construct: Bought protein; limits of the extracellular domain are marked by bold type not visible here; whole entry named; also called recombinant human LILRB1; ILT2
T8 sequence (Q8NHL6 other isoform, or with tags, fused parts or gaps): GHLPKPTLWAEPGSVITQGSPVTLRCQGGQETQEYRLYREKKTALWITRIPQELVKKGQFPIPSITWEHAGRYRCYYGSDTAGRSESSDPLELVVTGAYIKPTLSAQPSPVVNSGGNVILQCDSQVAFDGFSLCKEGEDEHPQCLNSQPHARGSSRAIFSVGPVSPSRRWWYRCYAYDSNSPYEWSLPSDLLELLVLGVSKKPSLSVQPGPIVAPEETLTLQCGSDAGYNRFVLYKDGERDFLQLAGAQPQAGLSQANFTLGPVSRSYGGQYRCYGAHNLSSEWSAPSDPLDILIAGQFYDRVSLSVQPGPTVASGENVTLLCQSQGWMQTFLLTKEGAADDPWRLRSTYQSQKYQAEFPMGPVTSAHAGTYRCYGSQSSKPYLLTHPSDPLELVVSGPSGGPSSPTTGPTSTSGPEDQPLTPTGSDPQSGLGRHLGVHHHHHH
The description is as above. As to the method:
as §1

In assay [9] the target is T9, LILRA2 (human, UniProt Q8N149 24-449).
T9 construct: Bought protein; limits of the extracellular domain are marked by bold type not visible here; whole entry named; also called recombinant human LILRA2
T9 sequence (Q8N149 other isoform, or with tags, fused parts or gaps): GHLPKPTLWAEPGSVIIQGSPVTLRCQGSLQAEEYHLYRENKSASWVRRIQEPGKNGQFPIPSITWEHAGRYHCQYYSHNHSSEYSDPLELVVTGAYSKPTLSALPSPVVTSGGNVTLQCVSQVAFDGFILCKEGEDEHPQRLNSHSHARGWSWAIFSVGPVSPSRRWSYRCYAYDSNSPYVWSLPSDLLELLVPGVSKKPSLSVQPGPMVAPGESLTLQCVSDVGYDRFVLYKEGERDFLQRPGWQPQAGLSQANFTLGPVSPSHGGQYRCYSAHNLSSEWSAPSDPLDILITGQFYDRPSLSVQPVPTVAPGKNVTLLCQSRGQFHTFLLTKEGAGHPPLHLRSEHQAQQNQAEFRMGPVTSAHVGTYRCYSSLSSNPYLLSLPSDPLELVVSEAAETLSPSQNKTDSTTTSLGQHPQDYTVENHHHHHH
The assay is described as above. As to the method:
as §1

Assay [10] has as its target T10, recombinant human ILT4 (LILRB2) (human, UniProt Q8N423 22-460).
T10 construct: Bought protein (Acro Biosystems or R&D Systems); also called ILTR4
The assay is described as follows: KinExA, solution equilibrium, n-curve analysis. As to the method:
Kinetic Exclusion Assay (KinExA®) was performed to measure the equilibrium binding affinity and kinetics between human ILT4 and four humanized LALA-Fc modified antibodies in solution. For affinity analysis, the equilibrium dissociation constant, KD, was experimentally determined and reflects the strength of the binding interaction. The rate of association, kₒₙ, was also experimentally determined, while the rate of dissociation, koff, is calculated based on the following equation: koff=KD×kₒₙ
The binding affinity (KD), association (kₒₙ), and dissociation rate constants (koff) were measured for 4 different Humanized LALA IgG antibodies to ILT4 using KinExA. An n-curve analysis of at least two different curves, run at two different CBP concentrations, was used to determine the KD of the interactions The ILT4 was used as the concentration reference for all curves. All of the binding systems have low error and well defined 95% confidence intervals giving confidence to the measurements: […]

Assay [11] addresses T11, human ILT4 expressed on cells (human, UniProt Q8N423 22-597).
T11 construct: whole, on cells; The same entry is used for endogenous ILT4 of human macrophages; also called CHO-S/ILT4 cells; ILT4-CHO cells
The assay is described as follows: flow cytometry, blockade of PE-HLA-A tetramer (5 ug/ml) binding to ILT4-CHO cells, Experiment 3 (table title prints HLA-G). A general note: A flow cytometer gives signals particle by particle.

Assay [12] addresses T11, human ILT4 expressed on cells. Description: flow cytometry, blockade of PE-HLA-A tetramer (5 ug/ml) binding to ILT4-CHO cells, Experiment 1 (table title prints HLA-G).
Assay [13] addresses T10, recombinant human ILT4 (LILRB2). The assay is described as follows: SPR, Biacore T200, mAb captured on anti-Fc, ILT4 injected, medium resolution, 25 C. The essentials: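 Mouse, chimeric or humanized mAbs captured on anti-Fc surfaces (CM4 chip); ILT4 injected at 101 to 0.79 nM, 2-fold series, 90 s association, 1200 s dissociation. Run at 25° C in HBS-P+ pH 7.4 with 100 μg/ml BSA; double-referenced global 1:1 fit with mass-transport term, KD=koff/kon.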

For assay [14], the target named is T11, human ILT4 expressed on cells. The assay is described as follows: flow cytometry, blockade of PE-HLA-A tetramer (5 ug/ml) binding to ILT4-CHO cells, Experiment 2 (table title prints HLA-G).

T10 sequence (Q8N423 other isoform, or with tags, fused parts or gaps limits assumed): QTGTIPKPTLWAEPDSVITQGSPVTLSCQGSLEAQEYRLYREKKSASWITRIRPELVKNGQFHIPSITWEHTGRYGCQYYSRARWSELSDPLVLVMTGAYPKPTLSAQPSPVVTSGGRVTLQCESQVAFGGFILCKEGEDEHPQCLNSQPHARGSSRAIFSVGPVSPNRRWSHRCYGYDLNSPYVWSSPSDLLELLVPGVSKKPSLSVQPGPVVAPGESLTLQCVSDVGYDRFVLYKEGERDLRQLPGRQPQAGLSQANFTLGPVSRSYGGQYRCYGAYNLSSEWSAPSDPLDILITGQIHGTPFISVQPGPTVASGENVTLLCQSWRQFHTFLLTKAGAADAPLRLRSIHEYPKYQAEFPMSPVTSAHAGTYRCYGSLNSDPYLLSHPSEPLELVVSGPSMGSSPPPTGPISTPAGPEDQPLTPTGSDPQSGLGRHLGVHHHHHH
T11 sequence (Q8N423 22-597): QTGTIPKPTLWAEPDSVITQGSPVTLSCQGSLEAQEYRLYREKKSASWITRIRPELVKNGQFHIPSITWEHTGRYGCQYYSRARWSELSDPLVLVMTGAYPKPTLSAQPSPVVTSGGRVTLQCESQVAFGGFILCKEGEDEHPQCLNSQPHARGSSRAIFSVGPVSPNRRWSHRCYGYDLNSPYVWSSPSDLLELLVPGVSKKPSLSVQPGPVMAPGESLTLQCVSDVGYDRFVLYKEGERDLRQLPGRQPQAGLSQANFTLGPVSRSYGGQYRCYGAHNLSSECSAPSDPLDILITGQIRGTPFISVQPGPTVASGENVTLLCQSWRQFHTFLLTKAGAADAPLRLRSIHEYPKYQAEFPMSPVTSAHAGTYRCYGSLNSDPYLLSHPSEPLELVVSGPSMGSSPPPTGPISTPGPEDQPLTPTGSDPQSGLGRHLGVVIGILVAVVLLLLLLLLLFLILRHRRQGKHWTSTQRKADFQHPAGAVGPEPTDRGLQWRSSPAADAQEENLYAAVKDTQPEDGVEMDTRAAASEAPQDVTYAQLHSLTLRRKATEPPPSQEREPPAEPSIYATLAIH
T7 sequence (Q6PI73 other isoform, or with tags, fused parts or gaps): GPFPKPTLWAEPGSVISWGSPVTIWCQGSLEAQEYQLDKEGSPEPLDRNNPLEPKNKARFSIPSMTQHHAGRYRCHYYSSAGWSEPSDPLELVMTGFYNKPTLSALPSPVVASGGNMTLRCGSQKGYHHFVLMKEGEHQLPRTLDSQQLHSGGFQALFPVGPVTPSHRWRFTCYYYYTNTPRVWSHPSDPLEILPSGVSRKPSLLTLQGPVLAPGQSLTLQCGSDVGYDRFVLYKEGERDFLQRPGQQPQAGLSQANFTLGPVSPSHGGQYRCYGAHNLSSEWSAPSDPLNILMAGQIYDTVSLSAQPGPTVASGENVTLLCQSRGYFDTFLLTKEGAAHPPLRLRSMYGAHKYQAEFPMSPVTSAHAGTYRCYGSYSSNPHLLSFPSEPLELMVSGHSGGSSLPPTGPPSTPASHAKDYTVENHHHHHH
T5 sequence (O75022 other isoform, or with tags, fused parts or gaps): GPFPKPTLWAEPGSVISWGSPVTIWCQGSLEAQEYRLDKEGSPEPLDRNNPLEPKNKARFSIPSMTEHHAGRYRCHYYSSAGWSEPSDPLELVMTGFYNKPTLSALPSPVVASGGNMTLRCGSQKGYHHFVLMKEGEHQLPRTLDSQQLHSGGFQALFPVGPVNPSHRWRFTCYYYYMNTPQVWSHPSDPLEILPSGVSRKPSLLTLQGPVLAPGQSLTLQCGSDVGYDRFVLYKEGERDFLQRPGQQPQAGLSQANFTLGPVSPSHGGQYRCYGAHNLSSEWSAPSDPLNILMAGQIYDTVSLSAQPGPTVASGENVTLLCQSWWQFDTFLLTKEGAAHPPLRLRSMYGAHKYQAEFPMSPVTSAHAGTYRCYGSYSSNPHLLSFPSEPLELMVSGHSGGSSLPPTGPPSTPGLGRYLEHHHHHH
T1 sequence (P59901 other isoform, or with tags, fused parts or gaps): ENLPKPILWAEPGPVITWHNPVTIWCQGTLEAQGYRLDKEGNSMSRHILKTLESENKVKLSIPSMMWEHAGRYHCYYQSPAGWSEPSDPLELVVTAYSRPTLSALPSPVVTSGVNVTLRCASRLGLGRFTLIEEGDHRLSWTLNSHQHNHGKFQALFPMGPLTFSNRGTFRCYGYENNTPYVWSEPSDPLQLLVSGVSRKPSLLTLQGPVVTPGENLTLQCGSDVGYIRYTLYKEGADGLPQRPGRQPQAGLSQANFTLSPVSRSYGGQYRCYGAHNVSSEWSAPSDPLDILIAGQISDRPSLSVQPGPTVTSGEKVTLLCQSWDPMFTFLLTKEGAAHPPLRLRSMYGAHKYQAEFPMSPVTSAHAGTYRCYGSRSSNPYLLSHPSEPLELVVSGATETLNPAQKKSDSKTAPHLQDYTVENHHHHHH
T6 sequence (O75019 other isoform, or with tags, fused parts or gaps): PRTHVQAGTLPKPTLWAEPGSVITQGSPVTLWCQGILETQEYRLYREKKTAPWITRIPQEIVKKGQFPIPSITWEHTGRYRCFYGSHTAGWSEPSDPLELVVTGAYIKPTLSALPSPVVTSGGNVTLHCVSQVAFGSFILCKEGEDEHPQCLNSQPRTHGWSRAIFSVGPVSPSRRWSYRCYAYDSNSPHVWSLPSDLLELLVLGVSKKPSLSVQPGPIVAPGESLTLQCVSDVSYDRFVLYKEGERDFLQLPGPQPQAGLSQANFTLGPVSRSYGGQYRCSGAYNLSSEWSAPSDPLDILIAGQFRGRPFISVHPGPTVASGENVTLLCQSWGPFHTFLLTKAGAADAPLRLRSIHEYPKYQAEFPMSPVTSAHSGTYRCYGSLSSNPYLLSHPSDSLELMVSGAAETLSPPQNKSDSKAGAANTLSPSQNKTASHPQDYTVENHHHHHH
T2 sequence (A6NI73 other isoform, or with tags, fused parts or gaps): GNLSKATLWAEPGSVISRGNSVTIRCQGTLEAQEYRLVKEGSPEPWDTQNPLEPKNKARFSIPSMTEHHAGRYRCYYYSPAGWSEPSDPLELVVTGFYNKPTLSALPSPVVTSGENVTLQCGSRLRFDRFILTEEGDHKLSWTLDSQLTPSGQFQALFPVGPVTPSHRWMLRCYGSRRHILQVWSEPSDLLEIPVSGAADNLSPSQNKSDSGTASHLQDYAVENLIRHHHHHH

B1: Hz45.01-LALA (antibody, human IgG1, kappa, L234A L235A, V domains shown)
VH: QVQLVQSGAEVKKPGASVKVSCKASGYTFTDYYMNWVRQAPGQRLEWIGDINPNNGGTSYNQKFKGRATITVDTSASTAYMELSSLRSEDTAVYYCARGGAELTGTYWYFDVWGQGTTVTVSS
VL: DIQMTQSPSSLSASVGDRVTITCRASENIYSNLAWYQQKPGKAPKVLVYGATNLADGVPSRFSGSGSGTEYTLTISSLQPEDFATYYCQHFWDSPFTFGGGTKVEIKR
notes: Humanized L45S4, human IgG1 L234A/L235A, kappa; also called Humanized 45_01; Hu IgG 45_01 LALA
B1: the binding result in [1], in assay [2], in assay [3], in assay [4], in assay [5] and in [6] was “no binding (tested: 100 nM)” throughout. In addition, the binding result in [7], in assay [8] and in [9] was “no binding (tested: 100 nM)” throughout. Also, the dissociation constant Kd stood at 0.0851 nM in assay [10] and 1.27 nM in [13]. For the same molecule, the values for the IC50 in assay [11], in [12] and in assay [14] were 0.109 µg/mL, 0.106 µg/mL and 0.122 µg/mL, respectively. In addition, the koff in assay [13] was 0.000418 s⁻¹. Besides, in assay [13], the kon stood at 330000 M⁻¹ s⁻¹.

B2: Hz156.03-LALA (antibody, human IgG1, kappa, L234A L235A, V domains shown)
VH: QVQLVQSGAEVKKPGSSVKVSCKASGYTFTDYYMNWVRQAPGQGLEWIARIYPGVYRTHYNEKFKDRVTLTADKSTSTAYMELSSLRSEDTAVYYCARSGYYGGTYEEDAMDYWGQGTTVTVSS
VL: DIQMTQSPSSLSASVGDRVTITCRASENIYSNLAWYQQKPGKAPKLLVYAATSLADGVPSRFSGSGSGTDYTLTISSLQPEDFATYYCQNFWDTPYTFGQGTKVEIKR
notes: Humanized L156S3, human IgG1 L234A/L235A, kappa
For B2, the binding result in assay [1], in assay [2], in [3], in assay [4], in assay [5] and in assay [6] was “no binding (tested: 100 nM)” throughout. Besides, the binding result in assay [7], in [8] and in assay [9] was “no binding (tested: 100 nM)” each time. Also, in assay [10], the Kd worked out at 0.00916 nM. For the same molecule, the values for the IC50 in assay [11], in assay [12] and in assay [14] were 0.164 µg/mL, 0.149 µg/mL and 0.152 µg/mL, respectively. Moreover, the kon in [13] came to 497000 M⁻¹ s⁻¹.

The term Kd denotes the free concentration of one partner at which half of the binding sites on the other are occupied at equilibrium, for simple one-to-one binding. Usually IC50 stands for the concentration that inhibits the measured activity by half. Higher therefore signals weaker potency in that assay. A word on the koff: it is the first-order rate constant of dissociation. One may read the kon as the second-order rate constant of association.

The values above are taken from patent publication US20260167714A1 (COHERUS BIOSCIENCES, published 2026).
